# Assay results from patent publication US20140287419A1, “Compositions Having Dicamba Decarboxylase Activity and Methods of Use” (priority 2013, published 2014).
# B1: 107 (protein, listed as Rhodopseudomonas palustris)
# chain: MAIIDIHGHYTTAPKALEDWRNRQIAGIKDPSVMPKVSELKISDDELQASIIENQLKKMQERGSDLTVFSPRASFMAHHIGDFNVSSTWAAICNELCYRVSQLFPDNFIGAAMLPQSPGVDPKTCIPELEKCVKEYGFVAINLNPDPSGGHWTSPPLTDRIWYPIYEKMVELEIPAMIHVSTSCNTCFHTTGAHYLNADTTAFMQCVAGDLFKDFPELKFVIPHGGGAVPYHWGRFRGLAQEMKKPLLEDHVLNNIFFDTCVYHQPGIDLLNTVIPVDNVLFASEMIGAVRGIDPRTGFYYDDTKRYIEASTILTPEEKQQIYEGNARRVYPRLDAALKAKGK
# B2: 105 (protein)
# chain: MAIDFHVHLDLYPDPVAVARACEERQLTVLSVTTTPAAWRGTLALAAGRPHVWTALGFHPEVVSERAADLPWFDRYLPETRFVGEVGLDGSPSLRGTWTQQFAVFQHILRRCEDHGGRILSIHSRRAESEVLNCLEANPRSGTPILHWYSGSVTELRRAISLGCWFSVGPTMVRTQKGAALIRSMPRDRVLTETDGPFLELDGQAALPWDVKSVVEGLSKIWQIPASEVERIVKENVSRLLGTVR
# modifications: Deinococcus radiodurans
# B3: 19 (protein, listed as Talaromyces marneffei)
# chain: MATPIITLEEHYISSAIRDASETDHYAVFPSQIISKLNTLSTERLQDLDNGHVSLQVISHGPGAQPPYLCQAANDELASAISANPTRFAGFALLPIAEPQLAVQELERCITQHKFVGALIDNHTNGQFYDDQKFWPVFEKAQELDAPIYVHPSYPDEESGVAAHYRGNYDDRIAAALGAYGWGWHSDTALSILRLFAAGLFDTYPNIKIIIGHMGEMLPFQLERVIGIASRFGRSRGLREVWTQNIWVTTSGMFALAPLACLLQTMPIERVLYSVDYPFSANEKGFAFLEEIKKSGLIKEGEDWERFLYKNAQELLKVNV
# B4: 13 (protein, listed as Metarhizium acridum)
# chain: MAHGKVALEEAFALPRLHEKTRWWASLFAVNPDKHAAEMTDITDIRINYMDKHGVGYTILSYTAPGVQDISDPKEAQALAVEINDYVAGAIKNHPDRFGAFATLSMRNPQEAATELKRCVTQYGFKGALVNDTQRAGEDDMIFYDGPEWDVFWSTVEELDVPFYLHPRNPTGSLYEKLWAKRKWLVGPPLSFAQGVSLHVLGMVTNGVFDRHPKLQVVLGHLGEHIPFDMWRINHWFEDVKKPLGLDCKKTIREYFQQNIWITTSGHFSTTTLQFCMAEVGADRILFSIDYPFECFADACDWYDGVPINLVDKAKIGRDNARRLFKLPEFKDSEKHVDA
# B5: 16 (protein, listed as Staphylococcus aureus)
# chain: MAQNNMEANQMKSITFEEHYVIEDIQKETMNAISADPKGVPMKVMLEGLEKKTGFTNADELSHHDERIQFMNNQDVQIQVLSYGNGSPSNLVGQKAIELCQKANDQLANYIAQYPNRFVGFATLPINEPETAAREFERCINDLGFKGALIMGRAQDGFLDQDKYDIIFKTAENLGVPIYLHPAPVNSDIYQSYYKGNYPEVTAATFACFGYGWHIDVGIHAIHLVLSGIFDRYPKLNMIIGHWGEFIPFFLERMDEALFAEHLNHPVSYYFKNNFYITPSGMLTKPQFDLVKKEAGIDRILYAADYPYIEPEKLGVFLDELGLTDEEKEKISYTNGAKLLGLSSNN
# B6: 106 (protein, listed as Pyrococcus horikoshii)
# chain: MAGMKFIKNLHVSKLVIDSMKALINGTIYTSFNPLKKVSGLVISHGKVIYAGDSEVAKKIVELSGGEIVDLKGKYVMPAFFDSHLHLDELGMSLEMVDLRGAKSIEELIQRLKRGKGRIIFGFGWDQDELGEWPTRKELNAIDKPVFIYRKCFHVAVANDKMLELLNLTPSKDFDEDTGIIKEKSLEEARKVINERVLTVEDYVYYIKRAQEHLLDLGVKSVSFMSVNEKALRALFYLEREGKLSINVFAYVTPEVLDKLESIGLGRFQGNRLTIAGVKLFTDGSLGARTALLSKPYSDDPSTSGQLVMEREELIRITEKARSLGLDVAIHAIGDKALDVALDVFETTGFPGRIEHASLVRDDQLERVKNLKVRLSVQPHFIISDWWIVERVGEERVKWVYRFKDLMKVAELGFSTDSPIEPADPWLTVDAAVNRGKGKVKLYELTKDQALDIKDALHSYTYGSARVSLASDIGKLEPGFKAEYIILDRDPLVVK
# B7: 9 (protein, listed as Octadecabacter antarcticus)
# chain: MATPKITFEEHFMAPGFEKHSEAFLKLIPRDQAEILTRRLGDFDGERIETMDRGGITRSIISLTGPGTQGEAVEKAVSAAQGANDFLAEKISKKPDRLGGLATLPMHDPDAAARELNRAVNDLGLQGCLVNTHTHGAYYEGTDYDPFWAEVEKLGVPFYLHPSNAYVTPHVLGGMPVLQGATWGWGVETGSHALRILFGGVFDRFPDVKLVLGHMGEALPFLRWRYDSRFGAYPMGVSLDRAPSAYFGSNILITTSGVCSHPSLIGAIGEMGADAVMFSVDYPYEDTDLAVEFIETAPLEDATRVKICHDNAARLFGMPTLAAKEGA
# B8: 12 (protein, listed as Zymoseptoria tritici)
# chain: MALGKVAFEEAFALPRFKERTTWWAGLFAVDPEKHTREINDINKLRIEKMDQFGVGYTLLSYTAPGVQDVWQQEEADALAREVNDHVAAEIKGHEDRLGALATLSMHDPQTASAELRRCIKDYGFKGALVNDTQRNDESGTGMIFYDGPEWDVFWSTVQELDVPFYLHPRNPTGVFMEKLWAPRKWLVGPPLSFAQGVSLHLLGMVTNGTFDRFPNLQVIIGHLGEHLPFDLWRINHWFEDIKKPLGLDCKKTIREYFNENIWITTSGHFSTPTLEYCIKEIGAERILFSIDYPFEKFEDACDWYDGVELDGPDTVKKIGRENAKKLFKLGAFKDDSA
# B9: 17 (protein)
# chain: MARGKIALEEAFEVKGMDEEIDAQAALYIAPKDVERYKRQIVSITDERLQLSDQNGIGYSILSLTVPGIQGITDKDKAEKRARDVNNYIHDQIKDHRDRLGAFAALSMHDPRQAGHELRRCVKELGFHGALLNDVQHTGEGDDDQPLFYDQPDYDEFWRVAVELDVPVYLHPAAPLRDTLIYKQSYEDRKYLVGPPQSYCNGVALHLMGIIVNGVFDRFPNLKVIVGHMGERIPFDFWRMDHWVKGVTRPLAEKNGDTVCQKEPLYYFKRNIYITTSGHFSTQNLRYLYEWLGDERMMFSVDFPYERMEHGCQWYDDDAEKIKEALGGRDGYLRVGRDNARRLFKLTKFKDCDAV
# modifications: Aspergillus niger
# B10: 14 (protein, listed as Talaromyces marneffei)
# chain: MARGKVSFEEAYEIPALADKSREQAALYIAPKDLDRYLSEIKSPTGGRLDISNKNGIGYTIYSLTVPGVQGIADKAKAEKHATDVNNWIYNEIKDHRDRMGAFAALSMHDPVQAGQELERCVKKLGFHGALLNNWQHAGTDGETYIFYDHPSYDVFWQKCVELDVPVYLHPSAPSGKVFDTFFKDRRYLIGPPISFAQDVALHTMGLITNGVFDRNPKLKLILGHLGERIPQDLWRTNHWLEDVERPLADSRGDTMSRKPLLYYFKNNIYVTTSGHFSTETVKFVCDYFGADRILFSVDSPYEKIEEGAGWYDKDKDNLTKALGGPQQYLDVGRENAKKLFKLGKYHDCDA
# B11: 18 (protein, listed as Legionella pneumophila)
# chain: MAIVDFETHFITEACIDYLTQRQEVPKLVPELNGAYTMCFTPDVSLFHTSALMEELLSLNEQRLAIMDQAGVTIQVLSLTTINGIDSCPGDENKSTALAREVNDQLYSAIQKHPERFKGFASISPYDVKEGVKELERAISQLGFVGWLTHSNFGQDNYLDDKIYWPLLEAAESLNIPIYLHPNVPIMREFGKYGFALGGSALGFEFDTALCLMRMILGGVFDAFPKLKIMLGHLGETMPFLMERLDHLYRIPDLKPYRPSIQRIPSEVLRQNVYITTSGRFFVPALRYVLEVMGEDRVLFASDYPMESLLDATRFIQDSDLSNQTKQKIFSINAKNLNLI
# B12: 15 (protein, listed as Metarhizium anisopliae)
# chain: MAQEIAKSHETSTRFAGFAVLPMRDPEAAAKELERAVKKLGFVGALVDHKTAHGNGFCEGNEYDVLWRKAEQLAVPIYLHPSWPTEKQFQQAYAGNYSPTAAGTIGGAMFNWHSEVGHHVLRLYAAGVFDKFPKLKIIIGHFGEMIPYMLDRIREQDHRLGKTGRTFSEVYDENIWITTSGVWSLDPMRCILANTKIDHILYSVDYPFTMNERGLEWFQELEKSGLLSEEDLALIAYKNCEKLLGVKAPTQD
# B13: 108 (protein, listed as Staphylococcus aureus)
# chain: MAKSITFEEHYVIEDIQKETMNAISADPKGVPMKVMLEGLEKKTGFTNADELSHHDERIQFMNNQDVQIQVLSYGNGSPSNLVGQKAIELCQKANDQLANYIAQYPNRFVGFATLPINEPEAAAREFERCINDLGFKGALIMGRAQDGFLDQDKYDIIFKTAENLDVPIYLHPAPVNSDIYQSYYKGNYPEVTAATFACFGYGWHIDVGIHAIHLVLSGIFDRYPKLNMIIGHWGEFIPFFLERMDEALFAEHLNHSVSYYFKNSFYITPSGMLTKPQFDLVKKEVGIDRILYAADYPYIEPEKLGVFLDELGLTDEEKEKISYTNGAKLLGLSSNN
# B14: 11 (protein)
# chain: MALGKIALEEAFALPRFEEKTRWWASLFSVDPETHVKEITDINKLRIEHADKYGVGYQILSYTAPGVQDIWDPVEAQALAVEINDYIAEQIRDKPDRFGAFATLSMHNPQEAASELRRCVQTYGFKGALVNDTQRAGPDGDDMIFYDNASWDIFWQTCTELDVPLYLHPRNPTGTIYEKLWADRKWLVGPPLSFAQGVSLHVLGMVTNGVFDRHPNLQLIMGHLGEHVPFDMWRINHWFEDRKKLLGLAETCKKTIREYFAQNIWITTSGHFSTTTLNFCMAEVGVDRILFSIDYPFETFEDACVWFDGAELNLSDKAKIGRDNAARLFKLGAFRDYDAKVKA
# modifications: Aspergillus niger
# B15: 10 (protein, listed as Starkeya novella)
# chain: MARKIALEEHFTTPELAGKYVARPTQSDALFADIERRLADFDELRLEMMDRAEIDLMVLSVTTPGVQGVRDTGEAIRLARGANDFLAREVQKRPSRYAGFAHLAMQDAEAAATELERAVRELGFRGALINGQTNGHYLDEDQYAPFWERVQELDVPVYLHPGNMADSPAMFAHRPELGGPIWAWTAETAAHALRLVFGGTFTRFPGAKVILGHMGETLPFLLWRLDSRREFDLGEKLAPDALPSAIIKRNIAVTTSGVCDPAPLVAALQALSDDNVMFSVDYPYEDPQLASKFIETAPIGEETRAKVCHGNAERLLGL
# Experiment: 14C assay with IPTG-induced recombinant E. coli cells (14CO2 capture from [14C]-carboxyl-labeled dicamba)
# Conditions: IPTG-induced recombinant E. coli cells; [14C]-carboxyl-labeled dicamba; 14CO2 capture
row,Molecule,Dicamba Decarboxylase Activity
1,B1,No
2,B2,No
3,B3,High
4,B4,No
5,B5,High
6,B6,No
7,B7,No
8,B8,No
9,B9,Low
10,B10,Low
11,B11,Low
12,B12,Low
13,B13,High
14,B14,Low
15,B15,Low

# Same assay, conditions: dicamba decarboxylation activity of the protein of the given SEQ ID NO
row,Molecule,Enzymatic Detection level
1,B1,No
2,B2,No
3,B3,High
4,B4,No
5,B5,High
6,B6,No
7,B7,No
8,B8,No
9,B9,Low
10,B10,Low
11,B11,Low
12,B12,Low
13,B13,High
14,B14,Low
15,B15,Low
